Here are results for 21 sequences from the DeepSol protein solubility set.

The nature of the data set: soluble on expression in E. coli; label from the status in PepcDB or PDB records.
In the case of “MIVLGIESSCDETGLAIYDYSKKKLIADELYSQVKLHKKYGGVVPELASREHIAKLNLLAKKIFKETGLSFEDIDCIAYTAMPGLVGALMVGATFAKTLGLIHNIDTIAVHHLEGHLLSPLLDHNSNIEYPFVALLVSGGHTQLFEVKEFGEYSLLGESIDDAAGEAFDKTTKLLGMGYPGGVEVANLADQATDKSKYILPRPMKNKPNLDFSFSGLKTAVLNTWYDEQDQSLENKANLCYAFQDAAIDVLVSKCAKALQKTKNTRLVISGGVSANKLLRHQLDLLAKNRGYQIFFPPMKYCTDNGAMIALAGAYRYVNGFKDSNLEINVKARSPL”, the “soluble on expression in E. coli” value was “soluble”.
The value for “NTKPENDLERAKRKNERAKARCVGITFETRPDYAREEHIREMLRFGGTKVELGVQSLYDDVLERIKRGHGVKEVAEATRLLRDSAFKVGYHIMPGLPGSSFERDLRMFRELFENDSFKPDYLKIYPTLVVEGTELYEMWKRGEYEPYTTEEVVELIVMAKRRFPE” was “not soluble”; that for “MYSIIRPFLLHAVTSVHAGSGSEIGLVDLPIQREKHTGFPKIESSSLKGALRYHMTQALPDETNKLELIFGADKGQESVTQASAIALSDARVLLFPVKSLRGVFAWITCPHVLERWNQEMSVHQEMKGKGEGFQSLPVPGPNTVSADRLIVADGRIILEEYTFPVTVSPEAKQLAEQLSAIIGESSRLRVTDRLVILSDDDFTDFVKLSTEVNARIRISPETGTVDSGALWYEENVPPETFFYSFLYIGHVRGKGVDGLATAEEIERYLVDERKFPSVFQLGGNSTLGRGMMRTIWL” was “not soluble”; that for “SKAWLHQYSVVGRKIPTQEEPEPPIYRLKIFAPNVVNAKSRFWYFLRKLKRVKKSSGEILNISEIFEKKSTQVKNYGIWIRYKSRSDTINMYREYRDVTVNGAVEQMYKDMSGRHRARWSSIWVLKAMPVAAKDCRRSKVTQFHDSKIKFALPHMRPRAPLKKYNTPFKAKRPTTIVQ” was “soluble”.
The value for “SLRFLGEKAAAKRQVLNADSVEQSFVGLKQLISCRNWRAAVDLCGRLLTAHGQGYGKSGLLTSHTTDSLQLWFVRLALLVKLGLFQNAEMEFEPFGNLDQPDLYYEYYPHVYPGRRGSMVPFSMRILHAELQQYLGNPQESLDRLHKVKTVCSKILANLEQGLAEDGGMSSVTQEGRQASIRLWRSRLGRVMYSMANCLLLMKDYVLAVEAYHSVIKYYPEQEPQLLSGIGRISLQIGDIKTAEKYFQDVEKVTQKLDGLQGKIMVLMNSAFLHLGQNNFAEAHRFFTEILRMDPRNAVANNNAAVCLLYLGKLKDSLRQLEAMVQQDPRHYLHESVLFNLTTMYELESSRSMQKKQALLEAVAGKEGDSFNTQCLKLA” was “not soluble”.
As for “MRGSHHHHHHTDPALRAYDNLKSLGITNPEEIDRYSLRQEANNDILKIYFQKDKGEFFAKSVKFKYPRQRKTVVADGVGQGYKEVQEISPNLRYIIDELDQICQRDRSEVDLKRKILDDLRHLESVVTNKISEIEADLEKLTRKGLCGR”, the entry is “soluble”; as for “MGSDKIHHHHHHMLNDFVDRCVWAADLSAEQRDRVRRAMFVREYTQGDYVCHKGEIAEHWLGVLEGIVKITTVSPSGKSVTFTGVPTGGWFGEGAVLKSEIRKYDVMALRRSTIAFLPRDTFQWLLDTSLPFTRFLLTQFNERLGQFIAAVEYERLLDIDSRVARAVSSLFNEHLYPGIGNTLEISQEEIGLLAGISRQRANQALKVLEQQGLVRVDYGVIEVLDLEGLRQYGE”, “not soluble”.
Turning to “MKQLTLAKTVKGVGIGLHKGEPIEITLEPLEANSGIVFFRSDLNASYKASPENVINTQMATVLGDDRGFISTIEHLMSAINAYGIDNVRIVLNANEAPVMDGSSISFCMMLDEAGVKELDAPKKIMVIKKPIEVRDGNKFVRLTPTKEPRINYTIKFDNAVIGEQSYNFEFSKKNYIENIARARTFGFLKDVQALRSMNLALGGSLENTIVVDENRILNPEGLRFKDEFVRHKILDAIGDLTLLGYRVFGDYTSYAGSHHLNHLLTKEVLKDKDAYEIVSLEKTTQKAYEKVFALEHHHHHH”, the “soluble on expression in E. coli” value is “soluble”.
Turning to “MKSACSIITASIVLYKSKPDIIRDVITSFFSDTVTKKKLILIDNSPTDSLRVLQEERPEDIQYFFNNRNIGFGSAHNIGIREAARFNPSYHLILNPDVQFGPEVVPTLASYMDENPDIGLLMPQVYYPNGELQHLCKLFPRPWDVMLRRFVPYRSYRERNNERFELRNWSYDTIQDIPSLSGCFMFARMDILREVGGFDERFFMYAEDLDLCRRIGQVSRTVFFPKVSIMHTYAKGSYHDAKLLRHHIVSLIRYFNKWGWLFDAERRRVNRACLAVLRNQTTVKKD”, the “soluble on expression in E. coli” value is “not soluble”.
Consider “MKKGTVLNSEISSVISRLGHTDTLVVCDAGLPIPNSTARIDMALTQGVPSFMQVVDVVTREMQVEAAILATEIKQQNPQLHETLLTHLEQLQQHQGNTIKISYTTHEQFKKLTADSQAVIRSGECSPYANVILCAGVTF”, for which the “soluble on expression in E. coli” value is given as “not soluble”.
Consider “GGHDVPLTNYLNAQYYTDITLGTPPQNFKVILDTGSSNLWVPSNECGSLACFLHSKYDHEASSSYKANGTEFAIQYGTGSLEGYISQDTLSIGDLTIPKQDFAEATSEPGLTFAFGKFDGILGLGYDTISVDKVVPPFYNAIQQDLLDEKRFAFYLGDTSKDTENGGEATFGGIDESKFKGDITWLPVRRKAYWEVKFEGIGLGDEYAELESHGAAIDTGTSLITLPSGLAEMINAEIGAKKGSTGQYTLDCNTRDNLPDLIFNFNGYNFTIGPYDYTLEVSGSCISAITPMDFPEPVGPLAIVGDAFLRKYYSIYDLGNNAVGLAKAI”, for which the “soluble on expression in E. coli” value is recorded as “soluble”.
Take “MGSDKIHHHHHHMLNIDGSKYIVNNNLKNYLDNIKKPWGILFYRVLWQQLDKIKTSKVLDFGSGFGITANHFASNNMVIAIEPNSELVEARIQENDYIQIVGDLKALKSQKDNYFDVILCHNVFEYAKEREEIFKEFLRILKPGGIISLVKHNHAGRIMQKVVFENNIDEAEKLLNGGIIEVLGFGKVSYYKLEDIKKWCKGFEVEIIKVLGIRTFWALQQDNKIKEDPIWQEKMFKIEMMVSNIDEYVNISFFNHIILKKALKNYALE”: the “soluble on expression in E. coli” value was “not soluble”.
On to “MGSDKIHHHHHHMRSLSEFIENSQDKREIQRALAVKMLLEGYTHVAIQSILDVSSGFISKWKKAFFTFGVEGLKLRYKGSQGFLNPQQRYCVIEWLKTKEKWNLSELEYEIASSYGVVFESKQSYYDLFDAAGISWKKTQAHNPKYDEELVASKKKEICELLETRRSEIESGKLVVFMVDECHLLWGDICGYVWGKTSERISVPVVNARDKQTYFGAIDYKTHEFITYAAKKGDSQNMINFLEYLQSQRPGANLLIIWDGASYHRSNAIQDYLDSLNRQLEQEQWLITCKRFAPNAPQQNPVEDIWLQAKKLIREFYFFCHSFSVVKALFELAVNGQIFDFPKLNEYGNFSQMI”, for which the “soluble on expression in E. coli” value is reported as “not soluble”.
The value for “MVCLQRICYEKIFLKKKIIATGTIWMSNMQQINNASVRPVSAYNTKHLQIPAIALLQSSPLPEQAIRTFSRALLTPTNHLFVNGRYIRTGLISGFDSRKLSFFQRIYLFLKSRFFTENKSVKISAVWAHDSWSNNYFHWFNDTLPRLFLLSKQIEDSVAVLPVELSKITFIVESLELLKIEHQWIDQKKSHRFESLSVLHTATLQPDINPLLQKQMRDAVFSAMKIDPQERPFRKIYISRAHARYRKIINEQELLPVLKKYGYDIIYPETYSFKEQVKLFAESNALISIHGAGHTNCMFMKQDAKVMEIRNTEWESQPLCFWGLANIFELKWEYITATRVSEVSNFNDVFIAPHIFEESLRTFENIKLEHHHHHH” was “not soluble”.
As for “MLRNKAFVVRLYPNAAQAERINRTLGCARFVYNHFLARRIESYRQDGKGMIYAATDKALTLLKREEGTAWLAEVDKFALQQSLRDLERAYQNFFRTAKKSGKKVGFPKFKKKRTGEAYRTQFTNNNIEIGEGKLKLPKLGWVKTRGQRDMQGKILNVTVRRIHEGHYEASVLCEVEIPYLPAAPKFAAGVDVGIKDFAIVTDGKGEFEHHANPKYYRSSLRRLRKAQKTLSRRKKGSARYGRAKTTLARIHKRVANKRQDFIHKLTTSLVREYEITCTEHLKPDNMRKNRRLALSVSDAGWGEFIRQLEYKATWYGRLVSKISPYFPSSQICHDCGFKNPAVKNLAVREWTCPNCGETHDRDENAALNIRREGLVAAGMSDTQNAHGDCIRPTSVGSGLRSENHATSVVLEHHHHHH”, the entry is “soluble”; as for “QCTNGFDLDRQSGQCLDIDECRTIPEACRGDMMCVNQNGGYLCIPRTNPVYRGPYSNPYSTPYSGPYPAAAPPLSAPNYPTISRPLICRFGYQMDESNQCVDVDECATDSHQCNPTQICINTEGGYTCSCTDGYWLLEGQCLDIDECRYGYCQQLCANVPGSYSCTCNPGFTLNEDGRSCQDVNECATENPCVQTCVNTYGSFICRCDPGYELEEDGVHCSDMDECSFSEFLCQHECVNQPGTYFCSCPPGYILLDDNRSCQDINECEHRNHTCNLQQTCYNLQGGFKCIDPIRCEEPYLRISDNRCMCPAENPGCRDQPFTILYRDMDVVSGRSVPADIFQMQATTRYPGAYYIFQIKSGNEGREFYMRQTGPISATLVMTRPIKGPREIQLDLEMITVNTVINFRGSSVIRLRIYVSQYPF”, “soluble”.
On to “MRVISGSKKGRSLKAVAGTSTRPTTDKVKESIFNMIGPYFDGGRGLDLFAGSGGLGIEALSRGFEHCIFVDRDFKAIQTVKSNLKTLELTKHAQVYRNDAERALHAAAKRETGFRGIFLDPPYKEQKLKALLTLIDEYQMLEEDGFIVAEHDREVELPETVEILLEHHHHHH”, for which the “soluble on expression in E. coli” value is “soluble”.
With “EGKKIVFISDIHHGPYFERERVADLVRKVNELEPDIIILGGDYVSGDVGYIGACFEELSRLKADMGIFGVTGNHDEWTDYNLTVKCMENAGITVLSNRAEWLEIGDDKIKIAGVDWSTDWYFNSEPYVDPLIKDAEENDFVILVSHTPDLAEELTTDKVDLVLSGHTHGGQITFFGLWAPYVPSFYGQKYRTGIVKTDKTMALVSNGVGNTFLPIRFF”, the “soluble on expression in E. coli” value is on record as “not soluble”.
On to “MNDVDVLVVGAGALGLACAARLAEAGHGVLVAERERLVGSHTSSRNSEVIHAGLYYPPGSLKADLCLEGRERLYAWCARHGVGHRRIGKLLVAVEENERERLQALAANARACGVDDLMPLDGTTLRALEPQVRGVAALLSPSTGIIDSHAYLQSLQAVAERHGAQLALDTRVDRLERHAGGWRAEGQSVGEAFRLRAGWVVNAGGLFAQALAQRTEGLDPRLVPALHLCQGRYFSYSGRSPFRHLVYPMPEARTAGLGIHATLDLGGQLRFGPDVNYVDNLDYRVDESLRPAFAQVISRYFPGIDPRRLAAGYAGIRPKLGGPGEPAADFIIQTPAEHGLPGLVNLFGIESPGLTASLALAERVARALLEHHHHHH”, for which the “soluble on expression in E. coli” value is on record as “not soluble”.
“METTQKDELSSFLSVLPPVDFCCVYGSTLHPNNQDKSKMVDYILGVSDPIKWHSANLKMNSDHYASWMVHLGGARLITNVADKVGVGVHFNPFVNWNDRKLKYGVVRMHDLVQDILDWKRFYLSGRLQKPVHMLVDNLDIEDVNSVNKRAAISAALLLLPSKFTEEDLYAKICSLSYMGDLRMFFAEDTNKVNKIVKGQFDLFQSMYKPFLEECETKNLLRFSSAEASHTKLVQDSSLSATRSLVSSLPASVRSQMGKSLGEKKFVSETGRVMGEVCISSREEAAKCMEKVMRRRVMVSSGRQAVSGFLAAGAINATMYLSQKMRKAWNSRA”: the “soluble on expression in E. coli” value is “soluble”.
For the sequence “MGSDKIHHHHHHMKQAYIFDMDGTLFQTNRILGHALEDAFDFLRMNGRWTGKTPLAEYQTIMGVSLPEVWQTLLPGHSDEERALVDRIFQDALIRHIEQGQGALYSGAEATLQALKETGHPLYIASNGWKVYLTAIVRQYGLNRWLDGVYSIEDVASSQKSDLVAYILSEHQLTDMVVVGDRISDFQAAKVNRLPAVGCRFDFSNEAELEQADVIIDDLRELFQIDLKAVTK”, the “soluble on expression in E. coli” value is listed as “not soluble”.
